{
  "source": "patent US20230416313A1",
  "about": "(NAVIGO PROTEINS, published 2023)",
  "binders": {"B1": {"name": "CFH binding protein of SEQ ID NO: 5 (CID 209447) (designed binder)", "chain": "NAAEADDAQVSAAMEIIMLPNLTLEQAHSFIESLYRDPSVSKEVLGEAQKLNDSQAPK", "notes": "Coupled to Praesto Epoxy 85 resin"}, "B2": {"name": "CFH binding protein of SEQ ID NO: 20 (CID 209864) (designed binder)", "chain": "IAAKFDEAQQAAFYEILHLPNLTELQRNHFIQTLRDDPSVSLWVLGLAQLLNDSQAPKIAAKFDEAQQHAFYTILHLENLTEEQRNAFIQSLRDDPSVSLEVLGEAIKLNISQAPK", "notes": "as for B1"}},
  "biological_target": "T1, recombinant human complement factor H (CFH), isolated from moss (human, UniProt P08603 19-1231)",
  "T1 construct": "also called moss-FH; recombinant CFH",
  "T1 sequence (P08603 19-1231 limits assumed)": "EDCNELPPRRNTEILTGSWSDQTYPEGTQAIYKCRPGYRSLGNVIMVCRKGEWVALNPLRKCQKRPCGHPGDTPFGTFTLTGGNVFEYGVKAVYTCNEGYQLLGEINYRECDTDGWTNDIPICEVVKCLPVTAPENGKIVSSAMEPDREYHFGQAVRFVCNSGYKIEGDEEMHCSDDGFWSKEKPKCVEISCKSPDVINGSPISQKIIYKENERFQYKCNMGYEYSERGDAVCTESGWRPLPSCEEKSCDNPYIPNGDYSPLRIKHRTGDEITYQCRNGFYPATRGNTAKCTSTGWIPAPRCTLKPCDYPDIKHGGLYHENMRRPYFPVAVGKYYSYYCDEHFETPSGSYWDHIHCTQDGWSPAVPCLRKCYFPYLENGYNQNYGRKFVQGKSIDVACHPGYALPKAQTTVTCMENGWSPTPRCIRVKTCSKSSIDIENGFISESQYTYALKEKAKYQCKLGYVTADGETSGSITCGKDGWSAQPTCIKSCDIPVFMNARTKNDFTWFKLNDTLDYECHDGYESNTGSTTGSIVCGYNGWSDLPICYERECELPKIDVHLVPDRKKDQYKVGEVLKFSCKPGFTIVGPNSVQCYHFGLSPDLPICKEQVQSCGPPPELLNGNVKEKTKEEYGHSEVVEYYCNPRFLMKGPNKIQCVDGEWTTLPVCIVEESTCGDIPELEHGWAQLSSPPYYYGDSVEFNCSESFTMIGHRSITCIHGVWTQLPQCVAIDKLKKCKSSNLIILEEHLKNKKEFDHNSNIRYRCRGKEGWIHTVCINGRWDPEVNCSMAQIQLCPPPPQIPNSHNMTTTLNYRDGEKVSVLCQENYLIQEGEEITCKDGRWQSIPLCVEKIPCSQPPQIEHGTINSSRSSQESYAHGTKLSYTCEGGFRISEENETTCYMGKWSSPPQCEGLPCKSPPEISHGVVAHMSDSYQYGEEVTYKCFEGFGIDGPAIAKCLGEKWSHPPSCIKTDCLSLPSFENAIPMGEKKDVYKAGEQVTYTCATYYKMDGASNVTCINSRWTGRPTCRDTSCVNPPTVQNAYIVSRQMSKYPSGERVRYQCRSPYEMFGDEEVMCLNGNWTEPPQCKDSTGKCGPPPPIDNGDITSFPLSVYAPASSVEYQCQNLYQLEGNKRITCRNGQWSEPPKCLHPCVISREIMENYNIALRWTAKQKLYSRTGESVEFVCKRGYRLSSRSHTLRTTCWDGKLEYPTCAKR",
  "test": "affinity chromatography, ligand on Praesto Epoxy 85, CFH supernatant bound in PBS pH 7.3, eluted at pH 3.5",
  "procedure": "Coupling parameter. Proteins were purified to homogeneity and coupled to resin for AIC experiments. […] Variants were successfully coupled to epoxy-activated Praesto 85 resin.\nAIC experiments. Capturing and Elution. For initial column performance tests, resins were packed into superformance 50-5 column housing. Phosphate buffered saline pH 7.3 (PBS) was used to equilibrate the column, followed by applying of 10 mL of recombinant CFH expression supernatant (titer: 0.47 mg/mL) at 6 min residence time. Resin was then washed with PBS for 15 column volumes. Elution was performed at pH 3.5 using 100 mM Citric acid buffer followed by stripping of residual bound CFH at pH 2.0. Elution at pH 3.5 and pH 2.0 was calculated by UV 280 nm absorption.",
  "data": [
    {"binder": "B1", "values": [
      {"measurement": "Step Yield of CFH at pH 3.5 (percentage elution)", "result": 91, "unit": "%"}
    ]},
    {"binder": "B2", "values": [
      {"measurement": "Step Yield of CFH at pH 3.5 (percentage elution)", "result": 96, "unit": "%"}
    ]}
  ]
}
